In article PMC9064986:

Key:
[1] = target: T1, Recombinant human BMP10 growth factor (GF)-domain (R&D Systems), O95393; experiment: SPR (Biacore); conditions: chain shown with the change, BMP10 immobilised on a CM5 Biacore chip
T1 chain: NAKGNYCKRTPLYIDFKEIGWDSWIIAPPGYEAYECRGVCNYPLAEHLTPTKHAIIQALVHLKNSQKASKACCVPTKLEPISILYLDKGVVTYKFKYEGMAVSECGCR

[2] = target: T2, BMP10 growth factor (GF)-domain from Pro:BMP10 made in HEK EBNA cells, O95393; experiment: ELISA (prodomain displacement); conditions: chain shown with the change; BMPRII ECD at 125x excess over Pro:BMP10; lower reading = more prodomain displaced; parent: est. 0.42; read off a plot
T2 chain: T1 chain

[3] = target: T2, BMP10 growth factor (GF)-domain from …; experiment: native PAGE prodomain displacement (densitometry); conditions: chain shown with the change, lower ratio = more prodomain displaced, read off a plot

B1: BMPRII extracellular domain (ECD), wild type, Q13873-1 ΔGDP (del of Gly, Asp and Pro in the A-loop) (protein)
chain: SQNQERLCAFKDPYQQDLGIGESRISHENGTILCSKGSTCYGLWEKSKGDINLVKQGCWSHIQECHYEECVVTTTPPSIQNGTYRFCCCSTDLCNVNFTENFPPPDTTPLSPPHSFNRDET
Question: How did the Kd ([1]; parent: 1.19E-06 M) turn out when B1 was run?
Answer: 1170 nM

Question: What about the koff ([1]; parent: 1.61E-01 s-1) of the same binder?
Answer: 0.0583 s⁻¹

Question: What about the other: OD reading, normalized to no BMPRII control [2] of the same binder?
Answer: 0.62

Question: And the other: Pro:BMP10/prodomain ratio, normalized to no BMPRII control ([3]; BMPRII ECD at 2-fold excess (2x) over Pro:BMP10, parent: est. 0.59)?
Answer: 0.94

Question: What about the other: Pro:BMP10/prodomain ratio, normalized to no BMPRII control ([3]; BMPRII ECD at 5-fold excess (5x) over Pro:BMP10, parent: est. 0.46) of the same binder?
Answer: 0.74
